Data set [1] concerns the molecule itself. Put plainly: single-molecule fluorescence microscopy with optical tweezers.
Data set [2] concerns the molecule itself. Described as above. This is another data set of the same source.

Where “and” joins values, the source holds several entries; their conditions need not be identical. Equal entries are not always repeated. Where two headings read alike, the source gives them in different places.

B1: C-terminal GFP-tagged SV40 LT (natural protein)
chain: MDKVLNREESLQLMDLLGLERSAWGNIPLMRKAYLKKCKEFHPDKGGDEEKMKKMNTLYKKMEDGVKYAHQPDFGGFWDATEIPTYGTDEWEQWWNAFNEENLFCSEEMPSSDDEATADSQHSTPPKKKRKVEDPKDFPSELLSFLSHAVFSNRTLACFAIYTTKEKAALLYKKIMEKYSVTFISRHNSYNHNILFFLTPHRHRVSAINNYAQKLCTFSFLICKGVNKEYLMYSALTRDPFSVIEESLPGGLKEHDFNPEEAEETKQVSWKLVTEYAMETKCDDVLLLLGMYLEFQYSFEMCLKCIKKEQPSHYKYHEKHYANAAIFADSKNQKTICQQAVDTVLAKKRVDSLQLTREQMLTNRFNDLLDRMDIMFGSTGSADIEEWMAGVAWLHCLLPKMDSVVYDFLKCMVYNIPKKRYWLFKGPIDSGKTTLAAALLELCGGKALNVNLPLDRLNFELGVAIDQFLVVFEDVKGTGGESRDLPSGQGINNLDNLRDYLDGSVKVNLEKKHLNKRTQIFPPGIVTMNEYSVPKTLQARFVKQIDFRPKDYLKHCLERSEFLLEKRIIQSGIALLLMLIWYRPVAEFAQSIQSRIVEWKERLDKEFSLSVYQKMKFNVAMGIGVLDWLRNSDDDDEDSQENADKNEDGGEKNMEDSGHETGIDSQSQGSFQAPQSSQSVHDHNQPYHICRGFTCFKKPPTPPPEPET
As a reminder, the stoichiometry N is a count of units in the complex or per binding partner. With B1, the “stoichiometry N” value is 3 and 4 and 5 in data set [1]; 6 and 12 in data set [2].
